# Results reported in US20210275657A1 (published 2021).
# B1: GATA3 specific TCR clonotype 1 (TCR, V domains shown)
# Valpha: SQKIEQNSEALNIQEGKTATLTCNYTNYSPAYLQWYRQDPGRGPVFLLLIRENEKEKRKERLKVTFDTTLKQSLFHITASQPADSATYLCALDIYGNNRLAFGKGNQVVVIP
# Vbeta: DVKVTQSSRYLVKRTGEKVFLECVQDMDHENMFWYRQDPGLGLRLIYFSYDVKMKEKGDIPEGYSVSREKKERFSLILESASTNQTSMYLCASSLDFVLAGSYSYNEQFFGPGTRLTVL
# Legend:
# [1] = molecular target: T1, GATA3 neoORF (frameshift mutation of GATA3), common region peptide on HLA-A*02:01 (human); assay: IL-2 release (Meso Scale Discovery) by TCR-transduced Jurkat cells, 10:1 with HEK 293T cells (endogenous HLA-A02:01) loaded overnight with titrated GATA3 peptide; FIG. 44; full-length, on cells
# [2] = molecular target: T1, GATA3 neoORF (frameshift mutation of …); assay: Summary statement of the same IL-2 peptide titration with TCR-transduced Jurkat cells and peptide loaded HEK 293T cells; full-length, on cells
binder,measurement,setting,value
B1,EC50 of peptide,[1],37.9 nM
same,EC50 of peptide,[2],< 40 nM
